Patent US20200331998A1 (ALLOGENE THERAPEUTICS, published 2020)
Changes are numbered by the printed parent chain.

Assays:
hCD19-HIS-AVI = target: T1, hCD19-HIS-AVI (human, UniProt P15391 20-291, limits assumed); assay: SPR (Biacore, 25° C.) sandwich assay with buffer/hCD19 injections
T1 construct: not shown: His and Avi tags
T1 sequence (looked up): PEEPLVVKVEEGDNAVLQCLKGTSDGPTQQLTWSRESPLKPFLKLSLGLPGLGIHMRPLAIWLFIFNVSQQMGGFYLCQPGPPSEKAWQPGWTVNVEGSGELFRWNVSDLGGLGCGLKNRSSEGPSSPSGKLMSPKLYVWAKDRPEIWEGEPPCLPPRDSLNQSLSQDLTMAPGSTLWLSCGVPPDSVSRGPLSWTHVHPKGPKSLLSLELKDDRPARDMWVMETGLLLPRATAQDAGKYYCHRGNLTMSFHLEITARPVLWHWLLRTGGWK
Method: (§1) Anti-m4G7 purified sub-clone antibodies were tested for binding to m4G7-hFab. Blocking effect was determined using a sandwich assay and binding confirmation to […] was determined using a Biacore assay at 25° C. […] Sensor chip CAP (CAPture chip) #505 was used as a surface. After rehydrating the sensor chip CAP with water at 42° C. for 1 hour, the chip was dried with compressed air. The surface of the chip was conditioned using triplicate 1 min injections of regeneration solution at 10 μl/min. The regeneration solution included 3 parts of Regeneration Stock 1 (8 M guanidine-HCl) with 1 part Regeneration Stock 2 (1 M NaOH). Capture of Biotin CAPture reagent for 5 min at 2 μl/min was followed by capture of biotinylated Fusion E2153 anti-m4G7 purified sub-clones antibodies and control antibodies at 10 μg/ml for 1 min at 10 μl/min.
The blocking effect of m4G7-hFab binding to hCD19 by the purified anti-Ids sub-clones from Fusion E2153 was determined by the sandwich assay at 25° C. Sample 1 was injected for 2 min at 30 μL/min followed by 10 sec in buffer then Sample 2 was injected for 2 min at 30 μL/min followed by 3 min dissociation: […]

m4G7 hFab 8×His [1] = target: T2, m4G7 hFab 8×His (human); assay: SPR (Biacore, 25° C.), biotinylated antibody captured on CAP chip, m4G7-hFab as analyte
T2 construct: Immunogen and Biacore analyte; also called 4G7-human Fab-8×His fusion protein (E2153); m4G7-Fab; not shown: It lies between the VH and the 8xHis tag and is left out
Method: as §1
(§2) For the kinetics assay, the buffer and m4G7-hFab at 1 nM, 10 nM, and 100 nM were injected for 2 min at 30 μL/min followed by 5 min dissociation.

m4G7 hFab 8×His [2] = target: T2, m4G7 hFab 8×His; assay: Biacore SPR at 25 °C, biotinylated antibody captured on CAP chip, m4G7-hFab injected, 1:1 Binding fit printed under the sensorgram; the text (Table 3) calls this clone very high affinity, outside instrument limits
Method: as §1, §2

T2 sequence (VH, as listed by the source limits assumed, chain 1 of 2): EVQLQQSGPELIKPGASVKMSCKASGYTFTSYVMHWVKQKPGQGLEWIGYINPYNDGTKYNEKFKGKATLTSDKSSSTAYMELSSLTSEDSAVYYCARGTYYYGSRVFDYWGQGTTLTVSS
T2 sequence (VL, as listed by the source limits assumed, chain 2 of 2): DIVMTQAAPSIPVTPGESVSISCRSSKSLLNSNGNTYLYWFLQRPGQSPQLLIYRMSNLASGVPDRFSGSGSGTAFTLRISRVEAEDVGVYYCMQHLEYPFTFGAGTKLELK

B1: E2153.2H8.A8 (antibody, V domains shown)
VH: QVQLQQSGAELVKPGASVKVSCKAFGYTFTTYPIEWMRQNHGKSLEWIGNFHPYNDDTRYNEKFKDKAKLTVEKSSSTVYLELSRLTYDDSAVYYCTRGNDYDLYGMDYWGQGTSVTVSS
VL: DIKMTQSPSSMYASLGERVTITCKASQDINTYLTWFQQKPGKSPKTLIYRANRLVDGVPSRFSGSGSGQDYSLTISSLEYEDMGIYYCLQCDDFPLTFGAGTKLELKR
notes: Mouse IgG1/kappa hybridoma antibody; Biotinylated for the Biacore assays; also called Clone A8; anti-UCART19 idiotype antibody A8
**Q.** Which results are given for B1?
**A.** binding result (hCD19-HIS-AVI): no binding (tested: 300 nM); Kd (m4G7 hFab 8×His [1]): 0.0144 nM; koff (m4G7 hFab 8×His [1]): 0.000106 s⁻¹; kon (m4G7 hFab 8×His [1]): 7.35e+06 M⁻¹ s⁻¹; t1/2 (m4G7 hFab 8×His [1]): 1.82 h

B2: E2153.4D7.E11 (antibody, V domains shown)
VH: QVQLQQSGAELVRPGTSVKVSCKASGYAFTNYLIEWVKQRPGQGLEWIGVITPGSGGSNYNEKFKGKATLTADKSSSTAYMQLSSLTSDDSAVYFCARWLDYDWFAYWGQGTLVTVSA
VL: DIKMTQSPSSMYASLGERVTITCKASQDINSYLSWFQQKPGKSPKTLIYRANRLVDGVPSRFSGSGSGQDYSLTISSLEYEDMGIYYCRQCDEFPSTFGGGTKLEIK
notes: Mouse hybridoma antibody; Biotinylated for the Biacore assays; PE-labelled in flow cytometry; also called Clone E11
**Q.** What does the source list for B2?
**A.** Kd (m4G7 hFab 8×His [2]): 0.00936 nM; koff (m4G7 hFab 8×His [2]): 3.65e-05 s⁻¹; kon (m4G7 hFab 8×His [2]): 3.9e+06 M⁻¹ s⁻¹; binding result (hCD19-HIS-AVI): no binding (tested: 300 nM)

B3: E2153.1C4.E2 (antibody, V domains shown)
VH: B1 VH
VL: B2 VL with S7F, S31T, S34T, R89L, E93D, S96L, G100A, I106L
notes: Mouse hybridoma antibody; Biotinylated for the Biacore assays; also called Clone E2
**Q.** Does B3 bind (hCD19-HIS-AVI)?
**A.** Result: no binding (tested: 300 nM)

**Q.** What about the Kd (m4G7 hFab 8×His [1]) of the same binder?
**A.** Its Kd is 0.0167 nM.

**Q.** And the koff (m4G7 hFab 8×His [1])?
**A.** Its koff is 0.000128 s⁻¹.

**Q.** And the kon (m4G7 hFab 8×His [1])?
**A.** The kon was 7.65e+06 M⁻¹ s⁻¹.

**Q.** And the “t1/2” value (m4G7 hFab 8×His [1])?
**A.** The value was 1.5 h.

B4: E2153.1D9.B4 (antibody, V domains shown)
VH: B2 VH with V37I, T52N, S58I, A72S
VL: B2 VL with S7F, L15V, R89L, S96F
notes: Mouse hybridoma antibody; Biotinylated for the Biacore assays; also called Clone B4
**Q.** For B4, which Kd (m4G7 hFab 8×His [2]) is on record?
**A.** Its Kd is 0.00489 nM.

**Q.** What about the koff (m4G7 hFab 8×His [2]) of the same binder?
**A.** Its koff is 1.58e-05 s⁻¹.

**Q.** And the kon (m4G7 hFab 8×His [2])?
**A.** Its kon is 3.22e+06 M⁻¹ s⁻¹.

**Q.** Does B4 bind (hCD19-HIS-AVI)?
**A.** Result: no binding (tested: 300 nM)
